For experiment [1], the target named is Ef-SOD1a^Δ (Euplotes focardii Cu,Zn superoxide dismutase 1a without its signal peptide) (Euplotes focardii). In words: SEC; comparison of the SEC chromatographic profiles of Ef-SOD1a and Ef-SOD1b; data not shown. On the technique in general: SEC sorts molecules by how far they enter the pores of the column.
Experiment [2] concerns the target Ef-SOD1b (Euplotes focardii Cu,Zn superoxide dismutase 1b) (Euplotes focardii). In words: SEC-MALS; 200 µl of protein (1 mg/ml) on Superose12 10/300 GL; 50 mM sodium phosphate buffer, NaCl 150 mM, pH 7.5.
In experiment [3] the target is Ef-SOD2^Δ (Euplotes focardii Mn superoxide dismutase without its mitochondrial signal peptide) (Euplotes focardii). The experiment is described as above.

One may read the stoichiometry N as the number of molecules, sites or subunits per partner or assembly.

As to “Ef-SOD1a^Δ (Euplotes focardii Cu,Zn superoxide dismutase 1a without its signal peptide) (enzyme)”, the stoichiometry N in experiment [1] turned out to be 2.

As for “Ef-SOD1b (Euplotes focardii Cu,Zn superoxide dismutase 1b) (enzyme)”, in experiment [2], the stoichiometry N was 2.

In the case of “Ef-SOD2^Δ (Euplotes focardii Mn superoxide dismutase without its mitochondrial signal peptide) (enzyme)”, the stoichiometry N in experiment [3] turned out to be 4.

The values above are taken from PMC6170424.
